{"source": "paper PMC3361975", "data": [{"tested_on": "NC(=O)c1ccc[n+]([C@@H]2O[C@H](COP(=O)(O)OP(=O)(O)OC[C@H]3O[C@@H](n4cnc5c(N)ncnc54)[C@H](O)[C@@H]3O)[C@@H](O)[C@H]2O)c1", "assay": "purified protein", "details": "phosphite and NAD+ varied, 100 mM MOPS pH 7.25, 25 °C", "values": [{"substance": "17X-PTDH (Stutzerimonas stutzeri; A319E/A325V/C336D/D13E/E130K/E175A/E332N/I150F/I313L/L276Q/M26I/Q132R/Q137R/Q215L/R275Q/R301A/V315A/V71I)", "Km": "0.216 (0.015) mM"}, {"substance": "17X-PTDH (Stutzerimonas stutzeri; A319E/A325V/C336D/D13E/E130K/E175A/E332N/I150F/I313L/L276Q/M26I/Q132R/Q137R/Q215L/R275Q/R301K/V315A/V71I)", "Km": "0.074 (0.007) mM"}, {"substance": "17X-PTDH (Stutzerimonas stutzeri; A319E/A325V/C336D/D13E/E130K/E175A/E332N/I150F/I313L/L276Q/M26I/Q132R/Q137R/Q215L/R275Q/V315A/V71I)", "Km": "0.022 (0.006) mM"}]}]}
